Values of other authors as cited in patent US11937625B2, “Oral administration formulation of blueberry extract as a coadjuvant for preserving the health of human precorneal film” (CENTRO DE RETINA MEDICA Y QUIRURGICA, S.C., priority 2017, dated 2024).

B1: lactoferrin (protein, UniProt P02788 20-710, looked up)
Lactotransferrin: GRRRSVQWCAVSQPEATKCFQWQRNMRKVRGPPVSCIKRDSPIQCIQAIAENRADAVTLDGGFIYEAGLAPYKLRPVAAEVYGTERQPRTHYYAVAVVKKGGSFQLNELQGLKSCHTGLRRTAGWNVPIGTLRPFLNWTGPPEPIEAAVARFFSASCVPGADKGQFPNLCRLCAGTGENKCAFSSQEPYFSYSGAFKCLRDGAGDVAFIRESTVFEDLSDEAERDEYELLCPDNTRKPVDKFKDCHLARVPSHAVVARSVNGKEDAIWNLLRQAQEKFGKDKSPKFQLFGSPSGQKDLLFKDSAIGFSRVPPRIDSGLYLGSGYFTAIQNLRKSEEEVAARRARVVWCAVGEQELRKCNQWSGLSEGSVTCSSASTTEDCIALVLKGEADAMSLDGGYVYTAGKCGLVPVLAENYKSQQSSDPDPNCVDRPVEGYLAVAVVRRSDTSLTWNSVKGKKSCHTAVDRTAGWNIPMGLLFNQTGSCKFDEYFSQSCAPGSDPRSNLCALCIGDEQGENKCVPNSNERYYGYTGAFRCLAENAGDVAFVKDVTVLQNTDGNNNEAWAKDLKLADFALLCLDGKRKPVTEARSCHLAMAPNHAVVSRMDKVERLKQVLLHQQAKFGRNGSDCPDKFCLFQSETKNLLFNDNTECLARLHGKTTYEKYLGPQYVAGITNLKKCSTSPLLEACEFLRK
B2: mono-PEGylated lactoferrin: lactoferrin with covalent attachment of polyethylene glycol (PEG), synthesized by Nojima et al (2008) (conjugate, UniProt P02788 20-710, looked up)
Lactotransferrin: B1 Lactotransferrin
modifications: mono-PEGylated

How the values were obtained:
[1] = day 60; oral supplement; post-cataract surgery patients; control group 7.86 (±0.86) seconds
pepsin = conditions: in mice; Nojima et al (2008)

| Molecule | fluorescein break-up time [1] | resistance to pepsin proteolysis (pepsin) |
| --- | --- | --- |
| B1 | 13.9 (±0.99) seconds | – |
| B2 | – | greater resistance |
